In PMC7583046, “The Paralogue of the Intrinsically Disordered Nuclear Protein 1 Has a Nuclear Localization Sequence that Binds to Human Importin α3” (International Journal of Molecular Sciences, 2020):

Tests used:
[1] = target: T1, human importin α3 (Impα3), intact (human, UniProt O00629 1-521); experiment: ITC; Impα3 or ∆Impα3 (10-20 μM) in the cell, NLS-NUPR1L (150-300 μM) in the syringe; Tris 50 mM, pH 8, 298 K; single ligand binding site model; conditions: both partners purified
T1 construct: Human importin α3 (KPNA4), intact protein with the IBB domain, residues 1-521; Purification as for ∆Impα3; also called KPNA4; source: E. coli BL21 (DE3), purified (codon-optimized DNA synthesized by NZYtech, in the pHTP1 vector)
T1 sequence (looked up): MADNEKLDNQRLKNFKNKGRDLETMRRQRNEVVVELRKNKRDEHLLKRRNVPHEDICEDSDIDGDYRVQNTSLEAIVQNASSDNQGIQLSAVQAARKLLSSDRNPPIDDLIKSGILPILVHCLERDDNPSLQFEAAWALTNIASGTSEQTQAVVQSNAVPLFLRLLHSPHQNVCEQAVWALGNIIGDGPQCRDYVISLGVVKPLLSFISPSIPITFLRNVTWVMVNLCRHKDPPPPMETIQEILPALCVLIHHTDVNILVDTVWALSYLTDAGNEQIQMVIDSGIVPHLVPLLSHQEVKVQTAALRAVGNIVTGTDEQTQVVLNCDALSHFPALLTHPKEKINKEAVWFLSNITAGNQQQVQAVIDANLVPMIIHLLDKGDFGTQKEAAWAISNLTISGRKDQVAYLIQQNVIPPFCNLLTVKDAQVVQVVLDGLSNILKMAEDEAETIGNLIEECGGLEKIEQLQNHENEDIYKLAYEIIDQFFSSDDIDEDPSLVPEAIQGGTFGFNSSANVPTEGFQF

[2] = target: T2, ∆Impα3, truncated species of human importin α3 (residues 64-521) depleted of the IBB (human, UniProt O00629 64-521); experiment: as above; conditions: both partners purified
T2 construct: source: E. coli BL21 (DE3), purified (codon-optimized)
T2 sequence (looked up): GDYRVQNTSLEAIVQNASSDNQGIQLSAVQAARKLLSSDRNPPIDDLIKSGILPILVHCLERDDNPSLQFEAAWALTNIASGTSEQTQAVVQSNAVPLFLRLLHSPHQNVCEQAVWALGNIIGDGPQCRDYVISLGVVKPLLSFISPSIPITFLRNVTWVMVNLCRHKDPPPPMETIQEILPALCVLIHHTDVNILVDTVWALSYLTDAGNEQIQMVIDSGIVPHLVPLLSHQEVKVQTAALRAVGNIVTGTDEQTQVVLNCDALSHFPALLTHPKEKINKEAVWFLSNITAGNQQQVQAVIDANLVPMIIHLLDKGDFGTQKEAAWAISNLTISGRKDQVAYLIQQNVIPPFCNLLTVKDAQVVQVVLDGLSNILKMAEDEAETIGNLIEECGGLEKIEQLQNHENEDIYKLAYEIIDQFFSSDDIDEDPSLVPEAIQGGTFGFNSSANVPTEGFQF

[3] = target: T1, human importin α3 (Impα3), intact; experiment: other fluorescence titration; importin (0-10 μM) added to a fixed concentration of NUPR1L (8 μM) or NLS-NUPR1L (8.5 μM); 50 mM phosphate buffer, pH 7.0, 298 K; excitation at 280 nm; apparent dissociation constants; conditions: both partners purified
[4] = target: T2, ∆Impα3, truncated species of human …; experiment: as above; conditions: both partners purified
[5] = cited from earlier work
[6] = target: T1, human importin α3 (Impα3), intact; experiment: other fluorescence titration; importin (0-10 μM) added to a fixed concentration of NUPR1L (8 μM) or NLS-NUPR1L (8.5 μM); 50 mM phosphate buffer, pH 7.0, 298 K; excitation at 280 nm; apparent dissociation constants; conditions: both partners purified; remark: listed apart in the source
[7] = target: T2, ∆Impα3, truncated species of human …; experiment: as above; conditions: both partners purified; remark: listed apart in the source
[8] = system: prothymosin α; conditions: ref [14]; cited from earlier work
Text: In this aspect, NLS-NUPR1L behaves not differently from any other NLS region of a well-folded protein [15, 20, 22, 40]; that is, it is disordered both in isolation and when participating in forming the complex with impo ...

[9] = system: ∆Impα3; conditions: CD 222 nm, 60 K/h, 50 mM phosphate pH 7.0, not reversible
Text: Far-UV CD spectra were collected on a Jasco J810 spectropolarimeter (Jasco, Tokyo, Japan) with a thermostated cell holder, and interfaced with a Peltier unit at 298 K. The instrument was periodically calibrated with (+)-10-camphorsulphonic acid. A cell with a path length of 0.1 cm was used (Hellma, Kruibeke, Belgium). All spectra were corrected by subtracting the corresponding baseline. The concentration of each polypeptide (importin species and either NLS-NUPR1L or intact NUPR1L) was the same as that used in the fluorescence experiments (Section 4.4).

[10] = ref [25]; cited from earlier work

B1: NLS-NUPR1L, peptide of the nuclear localization sequence of NUPR1L (residues 51-74) (peptide)
peptide: Ac-RTRREQALRTNWPAPGGHERKVAQ-NH2
notes: NUPR1L residues Arg51 to Gln74, the predicted NLS region; numbering as in intact NUPR1L; also called NLS-NUNPR1L; source: synthetic peptide (NZYtech, purity of 95%)
- Kd [1]: 12 ± 2 µM
- dH [1]: -3.1 ± 0.5 kcal/mol
- stoichiometry N [1]: 1.04 ± 0.05
- Kd [2]: 5.5 ± 0.9 µM
- dH [2]: -2.4 ± 0.5 kcal/mol
- stoichiometry N [2]: 0.75 ± 0.06
- Kd [3]: 3000 ± 1000 nM
- Kd [4]: 5 ± 2 µM

B2: NUPR1L, the NUPR1-like paralogue (intact) (natural protein, UniProt A6NF83 1-97, looked up)
chain: MEAPAERALPRLQALARPPPPISYEEELYDCLDYYYLRDFPACGAGRSKGRTRREQALRTNWPAPGGHERKVAQKLLNGQRKRRQRQLHPKMRTRLT
notes: NUPR1L, 97-residue-long paralogue of NUPR1, intact protein; one tryptophan (Trp62) and five tyrosines; concentrations are in protomer units; also called intact NUPR1L; source: expressed and purified as described [14]
- self-association state in solution ([5]; intact protein in solution, no reference at the place): oligomer
- tendency to aggregate ([5]; intact protein, ref [14]): high tendency to aggregate
- Kd [6]: 4 ± 0.7 µM
- Kd [7]: 5 ± 1 µM
- involvement of Trp62 in binding to prothymosin α [8]: Trp62 is also involved in the binding of NUPR1L to prothymosin α
- apparent thermal midpoint of unfolding of ∆Impα3, in presence of NUPR1L ([9]; 15 μM NUPR1L, 5 μM importin): 323 K

B3: ∆Impα3: Truncated species of Impα3 (residues 64-521) depleted of the IBB (protein, UniProt O00629 64-521, looked up, fragment)
chain: T2 sequence (looked up)
- apparent thermal midpoint of unfolding of isolated ∆Impα3 ([9]; absence of NUPR1L): 317 K
- solubility (relative to other importin species) [10]: lower solubility

B4: Impα3: Human importin α3 isoform (residues 1–521) (protein, UniProt O00629 1-521, looked up)
chain: T1 sequence (looked up)
modifications: full-length
- solubility (relative to other importin species) [10]: larger solubility
